This is an account of results in patent US20070178531A1 (BIOCHECK, published 2007).

Assay [1] deals with T1, Mouse Id2: Histidine (mouse, UniProt P41136 1-134, limits assumed).
T1 construct: Fusion protein made in E. coli from vector pGW07; also called m-Id2: His; not shown: His tag
T1 sequence (looked up): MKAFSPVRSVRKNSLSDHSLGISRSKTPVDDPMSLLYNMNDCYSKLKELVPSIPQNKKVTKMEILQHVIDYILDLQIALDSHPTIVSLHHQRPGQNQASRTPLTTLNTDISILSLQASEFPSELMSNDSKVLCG
Description: ELISA, Ab 0.025 µg/ml. As for the experimental part:
(§1) 1. Dispense 100 μL of antibody diluent, diluted rabbit monoclonal human Id3, and mouse/human Id3 hybridoma supernatants into appropriate wells. […] 2. Incubate at room temperature with mechanical shaking at 750 rpm for 90 minutes. [0165] 3. Remove the incubation mixture by flicking plate content into an appropriate waste container followed by rinsing the wells 5 times with distilled water. [0166] 4. Strike the wells sharply onto absorbent paper or paper towels to remove all residual water droplets. [0167] 5. Dispense 100 μL of 1:50,000 Goat Anti-Rabbit IgG-HRP Conjugate Reagent into each well. Gently mix for 5 seconds. [0168] 6. Incubate at room temperature with mechanical shaking at 750 rpm for 90 minutes. [0169] 7. Repeat procedures 3 and 4. [0170] 8. Dispense 100 μL of TMB Reagent into each well. Gently mix for 5 seconds. [0171] 9. Incubate at room temperature with mechanical shaking at 750 rpm for 20 minutes. […] 10. Add 100 μL of Stop Solution (1N HCl) into each well. [0173] 11. Gently mix for 10 seconds to ensure a complete mixing. [0174] 12. Read optical density at A450 nm.
(§2) Cross-reactivity of rabbit monoclonal anti-mouse/human Id3 (clone #6-1) and commercial rabbit polyclonal antibody (Santa Cruz Biotechnology) were determined according to the procedures of Example 9.
For orientation: An ELISA detects its analyte on a solid surface through an enzyme-linked reagent.

Assay [2] concerns the target T2, Mouse Id3: Histidine (mouse, UniProt P41133 1-119).
T2 construct: Fusion protein made in E. coli from vector pGW07; also called m-Id3: His; Mouse Id3 (coated wells); not shown: His tag
T2 sequence: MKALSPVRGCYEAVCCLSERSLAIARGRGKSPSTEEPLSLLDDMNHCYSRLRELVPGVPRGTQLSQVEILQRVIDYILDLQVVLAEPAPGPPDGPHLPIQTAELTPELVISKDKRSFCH
Description: ELISA, Ab 0.025 µg/ml. Here is the method:
as §1, §2

Assay [3] deals with T3, Human Id3: Histidine (human, UniProt Q02535 1-119 at identity 1.00)).
T3 construct: Fusion protein made in E. coli from vector pGW07; also called h-Id3: His; Human Id3 (coated wells); not shown: His tag
T3 chain: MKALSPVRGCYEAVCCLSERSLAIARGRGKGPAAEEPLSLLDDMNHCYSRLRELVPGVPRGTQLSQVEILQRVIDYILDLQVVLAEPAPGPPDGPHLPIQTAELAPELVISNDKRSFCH
The experiment in a line: ELISA, Ab 0.025 µg/ml. Here is the method: as §1, §2

The target in assay [4] is T4, Mouse Id1: Histidine (mouse, UniProt P20067-2 1-148, limits assumed).
T4 construct: Fusion protein made in E. coli from vector pGW07; also called m-Id1-His; not shown: His tag
T4 sequence (looked up): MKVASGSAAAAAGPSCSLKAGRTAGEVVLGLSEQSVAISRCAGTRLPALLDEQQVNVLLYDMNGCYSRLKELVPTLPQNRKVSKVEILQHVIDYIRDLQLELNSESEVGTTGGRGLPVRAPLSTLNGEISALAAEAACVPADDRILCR
The experiment in a line: ELISA, Ab 0.025 µg/ml. Here is the method: as §1, §2

The target of assay [5] is T5, Human Id1: Histidine (human, UniProt P41134 1-155, limits assumed).
T5 construct: Fusion protein made in E. coli from vector pGW07; also called h-Id1: his; not shown: His tag
T5 sequence (looked up): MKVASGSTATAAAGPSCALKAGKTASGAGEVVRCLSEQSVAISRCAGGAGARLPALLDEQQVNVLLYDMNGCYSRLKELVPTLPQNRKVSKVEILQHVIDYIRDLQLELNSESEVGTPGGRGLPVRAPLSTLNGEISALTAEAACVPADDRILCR
The experiment in a line: ELISA, Ab 0.250 µg/ml.

Assay [6] deals with T1, Mouse Id2: Histidine. Description: ELISA, Ab 0.250 µg/ml.
Assay [7] deals with T6, Human Id2: Histidine (human, UniProt Q02363 1-134, limits assumed).
T6 construct: Fusion protein made in E. coli from vector pGW07; also called h-Id2: His; not shown: His tag
T6 sequence (looked up): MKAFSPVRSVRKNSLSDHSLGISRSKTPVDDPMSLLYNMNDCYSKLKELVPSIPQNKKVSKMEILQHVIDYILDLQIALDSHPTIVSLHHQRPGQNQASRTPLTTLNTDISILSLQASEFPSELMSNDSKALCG
Description: ELISA, Ab 0.250 µg/ml.

For assay [8], the target named is T2, Mouse Id3: Histidine. The experiment in a line: ELISA, Ab 0.250 µg/ml.
The target of assay [9] is T3, Human Id3: Histidine. Description: ELISA, Ab 0.250 µg/ml.
The target in assay [10] is T4, Mouse Id1: Histidine. Description: ELISA, Ab 0.250 µg/ml.
Assay [11] has as its target T5, Human Id1: Histidine. The experiment in a line: ELISA, Ab 0 µg/ml (blank).
Assay [12] concerns the target T1, Mouse Id2: Histidine. The experiment in a line: ELISA, Ab 0 µg/ml (blank).
Assay [13] deals with T6, Human Id2: Histidine. The experiment in a line: ELISA, Ab 0 µg/ml (blank).
The target in assay [14] is T2, Mouse Id3: Histidine. Description: ELISA, Ab 0 µg/ml (blank).
In assay [15] the target is T3, Human Id3: Histidine. Description: ELISA, Ab 0 µg/ml (blank).
Assay [16] addresses T4, Mouse Id1: Histidine. The experiment in a line: ELISA, Ab 0 µg/ml (blank).

B1: rabbit monoclonal anti-mouse/human Id3, clone #BCH-4/#6-1 (antibody, V domains shown)
VH: QSVEESGGRLVTPGTPLTLTCTASGFSLSNVYIHWVRQAPGKGLEWIGYISDGDTARYATWAKGRFTISKTSSTTVNLKMTSLTTEDTATYFCARQGFNIWGPGTLVTVSL
VL: AVLTQTPSPVSAAVGGTVSISCQSSQSVWNNNWLSWFQQKPGQPPKLLIYETSKLESGVPSRFKGSGSGTQFTLTISDVQCDDAATYYCLGGYWTTSDNNVFGGGTEVVVK
notes: Rabbit IgG from a rabbit hybridoma; also called m/h Id3 MoAb 6-1
With B1, the A450 amounted to 0.076 A450 in the assay with Mouse Id2: Histidine [1]; 1.15 A450 with Mouse Id3: Histidine [2]; 1.01 A450 with Human Id3: Histidine [3]; 0.072 A450 in the assay with Mouse Id1: Histidine [4]; 0.061 A450 with Human Id1: Histidine [5]; 0.071 A450 with Mouse Id2: Histidine [6]. In addition, the A450 came out at 0.071 A450 with Human Id2: Histidine [7]; 3.13 A450 in the assay with Mouse Id3: Histidine [8]; 2.74 A450 with Human Id3: Histidine [9]; 0.058 A450 in the assay with Mouse Id1: Histidine [10]; 0.058 A450 in the assay with Human Id1: Histidine [11]; 0.058 A450 with Mouse Id2: Histidine [12]. Moreover, the A450 in the assay with Human Id2: Histidine [13] was 0.064 A450; with Mouse Id3: Histidine [14], 0.048 A450; with Human Id3: Histidine [15] it was 0.047 A450; in the assay with Mouse Id1: Histidine [16], 0.061 A450.
